From doi:10.1101/2021.01.04.424714 (bioRxiv, 2021)

B1: bacteriophage T7 gp16 core protein (natural protein, UniProt P03726 1-1318, looked up)
chain: MDKYDKNVPSDYDGLFQKAADANGVSYDLLRKVAWTESRFVPTAKSKTGPLGMMQFTKATAKALGLRVTDGPDDDRLNPELAINAAAKQLAGLVGKFDGDELKAALAYNQGEGRLGNPQLEAYSKGDFASISEEGRNYMRNLLDVAKSPMAGQLETFGGITPKGKGIPAEVGLAGIGHKQKVTQELPESTSFDVKGIEQEATAKPFAKDFWETHGETLDEYNSRSTFFGFKNAAEAELSNSVAGMAFRAGRLDNGFDVFKDTITPTRWNSHIWTPEELEKIRTEVKNPAYINVVTGGSPENLDDLIKLANENFENDSRAAEAGLGAKLSAGIIGAGVDPLSYVPMVGVTGKGFKLINKALVVGAESAALNVASEGLRTSVAGGDADYAGAALGGFVFGAGMSAISDAVAAGLKRSKPEAEFDNEFIGPMMRLEARETARNANSADLSRMNTENMKFEGEHNGVPYEDLPTERGAVVLHDGSVLSASNPINPKTLKEFSEVDPEKAARGIKLAGFTEIGLKTLGSDDADIRRVAIDLVRSPTGMQSGASGKFGATASDIHERLHGTDQRTYNDLYKAMSDAMKDPEFSTGGAKMSREETRYTIYRRAALAIERPELQKALTPSERIVMDIIKRHFDTKRELMENPAIFGNTKAVSIFPESRHKGTYVPHVYDRHAKALMIQRYGAEGLQEGIARSWMNSYVSRPEVKARVDEMLKELHGVKEVTPEMVEKYAMDKAYGISHSDQFTNSSIIEENIEGLVGIENNSFLEARNLFDSDLSITMPDGQQFSVNDLRDFDMFRIMPAYDRRVNGDIAIMGSTGKTTKELKDEILALKAKAEGDGKKTGEVHALMDTVKILTGRARRNQDTVWETSLRAINDLGFFAKNAYMGAQNITEIAGMIVTGNVRALGHGIPILRDTLYKSKPVSAKELKELHASLFGKEVDQLIRPKRADIVQRLREATDTGPAVANIVGTLKYSTQELAARSPWTKLLNGTTNYLLDAARQGMLGDVISATLTGKTTRWEKEGFLRGASVTPEQMAGIKSLIKEHMVRGEDGKFTVKDKQAFSMDPRAMDLWRLADKVADEAMLRPHKVSLQDSHAFGALGKMVMQFKSFTIKSLNSKFLRTFYDGYKNNRAIDAALSIITSMGLAGGFYAMAAHVKAYALPKEKRKEYLERALDPTMIAHAALSRSSQLGAPLAMVDLVGGVLGFESSKMARSTILPKDTVKERDPNKPYTSREVMGAMGSNLLEQMPSAGFVANVGATLMNAAGVVNSPNKATEQDFMTGLMNSTKELVPNDPLTQQLVLKIYEANGVNLRERRK
B2: bacteriophage T7 gp15 core protein (natural protein, UniProt P03725 1-747, looked up)
chain: MSKIESALQAAQPGLSRLRGGAGGMGYRAATTQAEQPRSSLLDTIGRFAKAGADMYTAKEQRARDLADERSNEIIRKLTPEQRREALNNGTLLYQDDPYAMEALRVKTGRNAAYLVDDDVMQKIKEGVFRTREEMEEYRHSRLQEGAKVYAEQFGIDPEDVDYQRGFNGDITERNISLYGAHDNFLSQQAQKGAIMNSRVELNGVLQDPDMLRRPDSADFFEKYIDNGLVTGAIPSDAQATQLISQAFSDASSRAGGADFLMRVGDKKVTLNGATTTYRELIGEEQWNALMVTAQRSQFETDAKLNEQYRLKINSALNQEDPRTAWEMLQGIKAELDKVQPDEQMTPQREWLISAQEQVQNQMNAWTKAQAKALDDSMKSMNKLDVIDKQFQKRINGEWVSTDFKDMPVNENTGEFKHSDMVNYANKKLAEIDSMDIPDGAKDAMKLKYLQADSKDGAFRTAIGTMVTDAGQEWSAAVINGKLPERTPAMDALRRIRNADPQLIAALYPDQAELFLTMDMMDKQGIDPQVILDADRLTVKRSKEQRFEDDKAFESALNASKAPEIARMPASLRESARKIYDSVKYRSGNESMAMEQMTKFLKESTYTFTGDDVDGDTVGVIPKNMMQVNSDPKSWEQGRDILEEARKGIIASNPWITNKQLTMYSQGDSIYLMDTTGQVRVRYDKELLSKVWSENQKKLEEKAREKALADVNKRAPIVAATKAREAAAKRVREKRKQTPKFIYGRKE

How the values were obtained:
[1] = target: B2; test: AUC
[2] = target: the molecule itself; test: AUC + other: dynamic light scattering

Row | Binder | stoichiometry N [1] | stoichiometry N [2]
1 | B1 | 6 gp16 monomers per gp15 hexamer | –
2 | B2 | – | 6
